Assay results: paper PMC9508239 (Nature Communications, 2022)

Target: the molecule itself
Experiment: cryo-EM structure; purified MmIR dimer fraction (20 mM Hepes-Na pH 7.4, 150 mM NaCl, 0.03% DDM) mixed with synthesized S597-component-2 (S597-N20) at 1:4 (m:m), incubated half an hour, 4 °C, concentrated to 6 mg/ml

B1: full-length mouse insulin receptor, short isoform, with kinase-dead mutation D1122N and mutation Y962F (receptor, UniProt P15208 28-1372, looked up)
chain: HLYPGEVCPGMDIRNNLTRLHELENCSVIEGHLQILLMFKTRPEDFRDLSFPKLIMITDYLLLFRVYGLESLKDLFPNLTVIRGSRLFFNYALVIFEMVHLKELGLYNLMNITRGSVRIEKNNELCYLATIDWSRILDSVEDNYIVLNKDDNEECGDVCPGTAKGKTNCPATVINGQFVERCWTHSHCQKVCPTICKSHGCTAEGLCCHKECLGNCSEPDDPTKCVACRNFYLDGQCVETCPPPYYHFQDWRCVNFSFCQDLHFKCRNSRKPGCHQYVIHNNKCIPECPSGYTMNSSNLMCTPCLGPCPKVCQILEGEKTIDSVTSAQELRGCTVINGSLIINIRGGNNLAAELEANLGLIEEISGFLKIRRSYALVSLSFFRKLHLIRGETLEIGNYSFYALDNQNLRQLWDWSKHNLTITQGKLFFHYNPKLCLSEIHKMEEVSGTKGRQERNDIALKTNGDQASCENELLKFSFIRTSFDKILLRWEPYWPPDFRDLLGFMLFYKEAPYQNVTEFDGQDACGSNSWTVVDIDPPQRSNDPKSQTPSHPGWLMRGLKPWTQYAIFVKTLVTFSDERRTYGAKSDIIYVQTDATNPSVPLDPISVSNSSSQIILKWKPPSDPNGNITHYLVYWERQAEDSELFELDYCLKGLKLPSRTWSPPFESDDSQKHNQSEYDDSASECCSCPKTDSQILKELEESSFRKTFEDYLHNVVFVPRPSRKRRSLEEVGNVTATTLTLPDFPNVSSTIVPTSQEEHRPFEKVVNKESLVISGLRHFTGYRIELQACNQDSPDERCSVAAYVSARTMPEAKADDIVGPVTHEIFENNVVHLMWQEPKEPNGLIVLYEVSYRRYGDEELHLCVSRKHFALERGCRLRGLSPGNYSVRVRATSLAGNGSWTEPTYFYVTDYLDVPSNIAKIIIGPLIFVFLFSVVIGSIYLFLRKRQPDGPMGPLYASSNPEFLSASDVFPSSVYVPDEWEVPREKITLLRELGQGSFGMVYEGNAKDIIKGEAETRVAVKTVNESASLRERIEFLNEASVMKGFTCHHVVRLLGVVSKGQPTLVVMELMAHGDLKSHLRSLRPDAENNPGRPPPTLQEMIQMTAEIADGMAYLNAKKFVHRNLAARNCMVAHDFTVKIGDFGMTRDIYETDYYRKGGKGLLPVRWMSPESLKDGVFTASSDMWSFGVVLWEITSLAEQPYQGLSNEQVLKFVMDGGYLDPPDNCPERLTDLMRMCWQFNPKMRPTFLEIVNLLKDDLHPSFPEVSFFYSEENKAPESEELEMEFEDMENVPLDRSSHCQREEAGGREGGSSLSIKRTYDEHIPYTHMNGGKKNGRVLTLPRSNPS
notes: insulin receptor, mouse, short isoform (A isoform), full length; Disulfide-linked dimer; The proreceptor is written as one chain; An HRV-3C site lay between the receptor and Tsi3; also called MmIR; IR; source: FreeStyle 293-F cells (BacMam), purified (DDM extraction, Tse3 resin, HRV-3C elution, Superose 6; dimer fraction); not shown: Tsi3, C-terminal, cleaved
  binding result: binds
